# Test results: patent US6506379
# What was measured:
# [1] = biological target: 1FRB-p65(361-550) (human) (UniProt P42345); test: cell-based or functional assay
# [2] = biological target: His6-flag-FKBP in complex with rapamycin (human); test: phage display affinity enrichment: FRAP(2015-2114) phagemids mixed with pBC control phagemids, 1 uM His6-flag-FKBP plus about 1 uM rapamycin, capture on Ni-NTA agarose, acid elution
# [3] = biological target: His6-flag-FKBP, no drug added (ethanol alone) (human); test: phage display affinity enrichment: FRAP(2015-2114) phagemids mixed with pBC control phagemids, 1 uM His6-flag-FKBP with ethanol alone, capture on Ni-NTA agarose, acid elution
# [4] = biological target: His6-flag-FKBP in complex with FK506 (human); test: phage display affinity enrichment: FRAP(2015-2114) phagemids mixed with pBC control phagemids, 1 uM His6-flag-FKBP plus about 1 uM FK506, capture on Ni-NTA agarose, acid elution
# Sequence of His6-flag-FKBP in complex with FK506 (human) (chain, as listed by the source limits assumed): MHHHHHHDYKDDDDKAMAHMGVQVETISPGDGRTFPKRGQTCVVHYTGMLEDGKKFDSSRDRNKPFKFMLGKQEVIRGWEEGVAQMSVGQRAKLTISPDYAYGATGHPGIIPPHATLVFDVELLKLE
# Sequence of 1FRB-p65(361-550) (human) (P42345 other isoform, or with tags, fused parts or gaps): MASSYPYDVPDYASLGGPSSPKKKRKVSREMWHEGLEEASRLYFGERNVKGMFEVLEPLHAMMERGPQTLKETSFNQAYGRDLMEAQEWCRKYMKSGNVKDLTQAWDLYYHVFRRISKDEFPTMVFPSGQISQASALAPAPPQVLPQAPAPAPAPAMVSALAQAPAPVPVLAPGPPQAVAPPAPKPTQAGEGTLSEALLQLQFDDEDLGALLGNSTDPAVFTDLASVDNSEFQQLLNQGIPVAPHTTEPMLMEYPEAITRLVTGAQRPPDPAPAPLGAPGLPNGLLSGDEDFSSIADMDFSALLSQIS
# Sequence of His6-flag-FKBP, no drug added (ethanol alone) (human) (chain, as listed by the source limits assumed): as the sequence (chain, as listed by the source limits assumed) above
# Sequence of His6-flag-FKBP in complex with rapamycin (human) (chain, as listed by the source limits assumed): as above
substance,measurement,setting,value
"ZFHD1-3FKBP, no drug (from UniProt P62942 1-107)","SEAP activity of the stable clone without rapamycin, extended assay (mock transfected cells 47 units) (arbitrary fluorescence units)",[1],54
ZFHD1-3FKBP in complex with rapamycin (from UniProt P62942 1-107),"SEAP activity of the stable clone at 100 nM rapamycin, extended assay (mock transfected cells 47 units) (arbitrary fluorescence units)",[1],> 90000
same,"SEAP secretion, transiently transfected HT1080 cells (ZFHD1-site SEAP reporter); lowest rapamycin concentration with detectable SEAP",[1],0.5 nM
same,"SEAP secretion, transiently transfected HT1080 cells; rapamycin concentration at peak SEAP",[1],5 nM
"FRAP (amino acids 2015-2114) displayed on filamentous phagemid particles, from p-CANTAB-AP-FRAP(2015-2114) (from UniProt P03661 215-424)",fold enrichment of FRAP phage compared to the starting mixture (carb/chlor cfu ratio),[2],271 fold
same,fold enrichment of FRAP phage compared to the starting mixture (carb/chlor cfu ratio),[3],1.5 fold
same,fold enrichment of FRAP phage compared to the starting mixture (carb/chlor cfu ratio),[4],2.4 fold
